Measured values reported in patent US20110065647A1.

Target: rNaV1.3 channels (rat), P08104
Assay: cell-based or functional assay

Sequence of rNaV1.3 channels (rat), P08104 (P08104 whole entry): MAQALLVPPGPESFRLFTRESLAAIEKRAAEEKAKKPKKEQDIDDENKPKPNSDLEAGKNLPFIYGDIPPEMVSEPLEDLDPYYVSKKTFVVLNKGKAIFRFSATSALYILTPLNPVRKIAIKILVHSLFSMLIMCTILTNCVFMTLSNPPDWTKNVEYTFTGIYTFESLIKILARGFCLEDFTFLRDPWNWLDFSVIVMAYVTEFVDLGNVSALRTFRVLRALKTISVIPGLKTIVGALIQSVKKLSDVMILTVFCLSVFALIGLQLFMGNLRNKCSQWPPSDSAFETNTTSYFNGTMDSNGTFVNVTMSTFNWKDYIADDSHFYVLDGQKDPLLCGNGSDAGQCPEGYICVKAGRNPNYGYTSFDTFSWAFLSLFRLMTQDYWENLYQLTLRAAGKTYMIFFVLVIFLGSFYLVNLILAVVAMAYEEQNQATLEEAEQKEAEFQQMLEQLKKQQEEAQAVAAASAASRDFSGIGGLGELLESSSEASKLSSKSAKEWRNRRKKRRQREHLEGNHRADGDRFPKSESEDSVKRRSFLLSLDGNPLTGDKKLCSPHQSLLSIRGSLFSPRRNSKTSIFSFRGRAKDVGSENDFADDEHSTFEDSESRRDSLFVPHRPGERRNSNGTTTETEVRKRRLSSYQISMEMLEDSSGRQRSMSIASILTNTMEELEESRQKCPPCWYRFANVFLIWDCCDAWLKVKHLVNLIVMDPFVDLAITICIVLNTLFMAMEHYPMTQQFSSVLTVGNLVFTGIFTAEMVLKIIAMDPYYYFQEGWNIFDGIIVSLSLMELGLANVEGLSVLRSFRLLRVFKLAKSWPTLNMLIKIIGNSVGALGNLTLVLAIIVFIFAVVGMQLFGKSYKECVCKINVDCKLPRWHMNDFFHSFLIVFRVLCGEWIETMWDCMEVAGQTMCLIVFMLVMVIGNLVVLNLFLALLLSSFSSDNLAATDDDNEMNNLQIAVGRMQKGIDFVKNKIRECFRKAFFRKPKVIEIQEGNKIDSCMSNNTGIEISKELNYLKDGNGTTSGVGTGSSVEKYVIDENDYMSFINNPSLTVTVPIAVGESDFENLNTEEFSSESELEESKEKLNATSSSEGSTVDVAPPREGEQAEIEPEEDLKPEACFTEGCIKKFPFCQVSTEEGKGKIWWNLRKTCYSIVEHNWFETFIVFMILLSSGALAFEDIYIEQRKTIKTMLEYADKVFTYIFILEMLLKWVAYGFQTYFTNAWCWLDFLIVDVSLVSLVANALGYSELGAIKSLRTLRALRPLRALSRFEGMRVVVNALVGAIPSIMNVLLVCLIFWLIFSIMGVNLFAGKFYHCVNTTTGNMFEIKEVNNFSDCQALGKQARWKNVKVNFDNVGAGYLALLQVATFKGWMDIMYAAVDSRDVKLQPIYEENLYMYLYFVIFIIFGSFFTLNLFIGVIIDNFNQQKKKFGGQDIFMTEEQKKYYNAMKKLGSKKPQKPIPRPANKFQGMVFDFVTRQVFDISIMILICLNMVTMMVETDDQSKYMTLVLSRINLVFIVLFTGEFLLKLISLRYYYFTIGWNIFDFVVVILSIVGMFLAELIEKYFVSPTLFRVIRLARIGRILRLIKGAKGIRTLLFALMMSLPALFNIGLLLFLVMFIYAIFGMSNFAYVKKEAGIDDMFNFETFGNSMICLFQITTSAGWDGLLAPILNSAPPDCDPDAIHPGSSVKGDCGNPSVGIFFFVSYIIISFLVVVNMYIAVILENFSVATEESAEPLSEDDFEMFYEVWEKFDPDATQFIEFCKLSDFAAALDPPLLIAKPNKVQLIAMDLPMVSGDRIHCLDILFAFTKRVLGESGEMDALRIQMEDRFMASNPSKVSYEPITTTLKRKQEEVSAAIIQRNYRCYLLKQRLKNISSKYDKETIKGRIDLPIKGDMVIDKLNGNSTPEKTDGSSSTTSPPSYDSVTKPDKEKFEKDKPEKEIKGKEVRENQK

Binder: DCLGFMRKCIPDNDKCCRPNLVCSRTHKWCKYVF (modifications not checked) [Peptide E]
- IC50 Nav1.3 (µM); inhibition of channel current, patch clamp: 0.31 µM
